The test system of data set [1] is peripheral leukocytes. Kind of data set: Alkaline comet assay with and without hOgg1 incubation. It is filed as in vivo. The settings on record: wildtype mice, single tail vein injection; for Time of maximum DNA damage to peripheral leukocytes: TNF-α 500 ng or IL-β 100 ng alone; for Time to repair of DNA damage in peripheral leukocytes: TNF-α 500 ng/mouse or IL-β 100 ng/mouse alone. As to the method: Frozen blood was further diluted 1:15 in PBS before further preparation.
The enzyme hOgg1-modified comet assay was used for determination of oxidative DNA damage (25). Following lysis, samples were washed in an enzyme wash buffer (40 mM HEPES, 0.1M KCl, 0.5 mM EDTA, 0.2 mg/ml BSA, pH 8.0) then incubated at 37° C. for 10 min in either control (buffer with no hOGG1) or enzyme treated (buffer with hOGG1) solutions according to the manufacturer's recommendations. (New England Biolabs, Ipswich, Mass.). Both control and enzyme treated gels were then placed in electrophoresis buffer and processed identically to the alkaline comet assay.
The enzyme hOgg1-modified comet assay was used and carried out identically as previously described (1).
For determination of oxidative DNA damage the enzyme hOgg1-modified comet assay was used (5). After lysis in the alkaline comet assay, samples were washed in an enzyme wash buffer (40 mM HEPES, 0.1M KCl, 0.5 mM EDTA, 0.2 mg/ml BSA, pH 8.0) then incubated at 37° C. for 10 min in either control (buffer with no hOGG1) or enzyme treated (buffer with hOGG1) solutions according to the manufacturer's recommendations (New England Biolabs, Ipswich, Mass.). Both control and enzyme treated gels were then placed in electrophoresis buffer and processed identically to the alkaline comet assay.
Control animals received vehicle only.

Data set [2] relates to normochromatic erythrocytes. Kind of data set: In vivo micronucleus assay. The following applies: wildtype mice, 48 hours post-injection.
Method: Micronuclei (MN) formation was determined in peripheral blood erythrocytes to assess chromosomal instability. Similar to a previously proposed method (28), 3 μl of whole blood was spread on a microscope slide and stained in Modified Wright-Giemsa solution (Sigma-Aldrich, St. Louis, Mo.). MN were counted and scored with an Olympus Ax70 (Tokyo, Japan) at 100× following previously proposed criteria (29). At least 4000 mature erythrocytes were counted per mouse, and the frequency of MN formation was calculated as number of micronucleated erythrocytes per 1000 normochromatic erythrocytes.
Micronucleus formation was determined in normochromatic erythrocytes as micronucleated normochromatic erythrocytes per 1000 normochromatic erythrocytes as described previously (1, 8).
Mouse TNF-α (Sigma) and/or mouse IL-1β (Sigma) were injected via the tail vein at 500 ng/mouse and 100 ng/mouse, respectively, dissolved in saline. Control animals received vehicle only. Peripheral blood was collected at 1 hr, 2 hrs, 4 hrs, and 24 hrs after injection for genotoxicity assays.
In data set [3] the test system is TNF-α, MCP-1, IFN-γ, TGF-β transcripts. Kind of data set: Quantitative real-time PCR of cytokines in peripheral blood. It is filed as in vivo, mice. The following applies: 3% DSS, particularly after the first cycle. As to the method:
Total RNA was isolated using QiaAmp RNA Blood Mini Kit (Qiagen) according to manufacturer's instructions. 25 ng/μl of total RNA was used for reverse transcription using OligodT (Invitrogen) and Superscript III Reverse Transcriptase (Invitrogen). 10 ng/μl of cDNA was used for quantitative real time PCR using Taqman Gene Expression Assays (Applied Biosystems, Foster City, Calif. p/n 4331182) for Tbp (TATA binding protein), TNF-α (tumor necrosis factor α), MCP-1 (monocyte chemoattractant protein 1, also known as CC chemokine ligand 2, CCL2), IFN-γ (interferon γ), TGF-β ([…]) and Taqman Gene Expression Master Mix according to manufacturer's instructions on the ABI Prism 7500 sequence detection system (Applied Biosystems). Tbp was chosen as the endogenous control due to its low variability and low to medium relative abundance in terms of expression in blood (30). Each measurement was performed in triplicate and results were analyzed using SDS 2.2.1 software (Applied Biosystems). Gene expression was determined using the relative standard curve method normalized to Tbp expression.
(In general: In qPCR the cycle at which signal appears reflects the starting amount.)

For data set [4] the following is noted: literature statement; cited from earlier work.
Data set [5] concerns peripheral leukocytes. The experiment in a line: γ-H2AX immunofluorescence (DNA double strand breaks). It is filed as in vivo, mice. The settings on record: 3% DSS.
Method: Peripheral blood was incubated in Buffer EL (Qiagen, Valencia, Calif.) on ice to remove erythrocytes. Samples were then processed on coverslips essentially as described elsewhere (26). […] Coverslips were mounted with [sequence] with 4,6-diamidino-2-phenylindole (Vector Laboratories, Burlingame, Calif.). Images were captured with CytoVision® (Applied Imaging Corporation, San Jose, Calif.) connected to a Zeiss Axioplan 2 microscope. At least 125 cells were counted and cells with more than four distinct foci in the nucleus were considered positive for γ-H2AX (26). Apoptotic cells, which are distinguishable due to presence of 10-fold the number of nuclear foci in damaged cells (27), were not included in analyses.
Peripheral blood and splenocytes were incubated in Buffer EL (Qiagen, Valencia, Calif.) on ice to remove erythrocytes. […] Samples were then processed on coverslips as described elsewhere (6). Briefly, after permeabilization and blocking, cells were incubated with mouse anti-phospho-Histone H2A.X S139(P) (Upstate, Temecula, Calif.) at 1:400 followed by FITC-conjugated anti-mouse IgG (Jackson ImmunoResearch, West Grove, Pa.) at 1:200. Coverslips were mounted with [sequence] with 4,6-diamidino-2-phenylindole (Vector Laboratories, Burlingame, Calif.). […] At least 125 cells were counted and cells with more than four distinct foci in the nucleus were considered positive (6). […]

Here are results for three molecules from US9828641B2, “Systemic genotoxicity as blood marker for allergic inflammation” (The Regents of the University of California, priority 2013, dated 2017).

Entries after “also recorded” stand apart in the source; their conditions may differ.

As for TNF-α, in the data set on peripheral leukocytes [1] (TNF-α 500 ng/mouse), the “Onset of DNA damage to peripheral leukocytes (comet and γ-H2AX)” value is listed as 1 hour post-injection; the “Time until which DNA damage remained elevated” value is on record as “approximately 4 hours post-injection”. Moreover, in the data set on peripheral leukocytes [1], the “Time of maximum DNA damage to peripheral leukocytes” value is 1 hours post-injection and the “Time to repair of DNA damage in peripheral leukocytes” value is at most 24 hours post-injection. Moreover, in data set [2], the “Micronuclei formation in normochromatic erythrocytes vs before injection” value is “minimally yet significantly elevated”.
Turning to dextran sulfate sodium [DSS], the “Cytokine mRNA expression in peripheral blood” value in data set [3] is “up-regulation of TNF-α, MCP-1 (CCL2), and IFN-γ”. Also, the Direct mutagenicity/genotoxicity result in data set [4] is “not a mutagen nor genotoxic; also recorded: not directly genotoxic”. Also, the “Percentage of cells positive for γ-H2AX nuclear foci vs non-treated” value in the data set with peripheral leukocytes [5] (after first 7 day acute treatment, p<0.01) was “increased dramatically”. Moreover, in the data set with peripheral leukocytes [5] (until end of treatment, p<0.05), the “Percent γ-H2AX positive cells vs non-treated, chronic phase” value was “remained elevated over non-treated animals”.

B1: IL-β: Recombinant mouse IL-1β (Sigma), injected via the tail vein at 100 ng/mouse (protein, UniProt P10749 118-269, looked up)
Interleukin-1 beta: VPIRQLHYRLRDEQQKSLVLSDPYELKALHLNGQNINQQVIFSMSFVQGEPSNDKIPVALGLKGKNLYLSCVMKDGTPTLQLESVDPKQYPKKKMEKRFVFNKIEVKSKVEFESAEFPNWYISTSQAEHKPVFLGNNSGQDIIDFTMESVSS
For the molecule B1, in the data set on peripheral leukocytes [1], the “Time of maximum DNA damage to peripheral leukocytes” value is given as 4 hours post-injection and the “Time to repair of DNA damage in peripheral leukocytes” value is reported as at most 24 hours post-injection.
